Laboratory results taken from patent US10400024B2, “Cleavage and exchange of major histocompatibility complex ligands employing azobenzene-containing peptides” (priority 2014, dated 2019).
Entries after “also recorded” stand apart in the source; their conditions may differ.

Experiments:
PBMCs (CD8+ cells) = experiment: Cell viability assay with sodium dithionite (Annexin V, LIVE/DEAD, flow cytometry); assay type: cell-based, human; settings: 10 mM, 16 hours exposure; primary and cultured cells
Method: 10^6 freshly isolated PBMCs from healthy volunteers were incubated in 1 ml RPMI 1640 culture media containing HEPES-buffered 1 mM to 100 mM sodium dithionite (pH 7.4) at 37° C., 5% CO2. After 1-hour or 16-hour incubation, the cells were immediately assessed for cell viability or rested overnight in fresh media (for 1-hour treatment only). The cells were harvested, washed with PBS twice and stained with cell viability LIVE/DEAD® fixable near-IR stain (Molecular Probes®). The cells were then washed again with PBS and stained with anti-human CD8 (Clone RPA-T8; BioLegend) Brilliant Violet 421™ antibodies for 15 minutes. Thereafter, the cells were washed once with PBS and once with 1× Annexin V binding buffer (10 mM HEPES, pH 7.4; 140 mM NaCl; 2.5 mM CaCl2) prior to incubation with Annexin V FITC (eBioscience) for 10 minutes. The stained cells were immediately analyzed on BD LSRII flow cytometer and data were processed using FlowJo (Tree Star).

HLA-A*02:01 = HLA-A*02:01 (Homo sapiens, UniProt P04439, D140Y/D185E/D98H/E176V/E277Q/G131W/G231S/I119V/I121R/I166T/I218V/L300P/L318F/N151K/N90K/P208A/P217A/Q86G/Q94H/R138H/R169H/T345S); settings: cited from earlier work
[1] = assay type: physicochemical

Row | Molecule | known binder class to HLA-A*02:01 (HLA-A*02:01) | other results
1 | O=S([O-])S(=O)[O-].[Na+].[Na+] [dithionite, sodium dithionite] |  | apoptosis or cell death of cells exposed to buffered dithionite (PBMCs (CD8+ cells)): little sign of apoptosis or cell death
2 | ALQLLLEV | intermediate- | 
3 | NMLSTVLGV | high-affinity | 
4 | SIIPSGPLK [Peptide 10] |  | epitope modification after oxidative conditions ([1]; 0.3 mM sodium periodate, RT, 2 hours): cleaved the N-terminal Ser; also recorded: N-terminal serine of 10 was cleaved; epitope modification in PBS ([1]; PBS control incubation): unmodified
5 | SLENFRAYV | intermediate- | 
6 | VMLRWGVLA | intermediate- | 
